# Source: publication PMC11649694, “ZBTB48 is a priming factor regulating B-cell-specific CIITA expression”
# T1: ZBTB48 ZnF10-11-C (Homo sapiens, UniProt P10074 548-620)
# T1 sequence: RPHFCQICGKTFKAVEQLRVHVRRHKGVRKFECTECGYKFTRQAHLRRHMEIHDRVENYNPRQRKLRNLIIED
# B1: CIITA e.2 crystal duplex (dsDNA)
# DNA 1: CACAAGTGAGGGATCA
# DNA 2: GTGATCCCTCACTTGT
# Target: T1, ZBTB48 ZnF10-11-C
# Experiment: X-ray crystallography; ZnF11 contacts G10G11G12; R614 contacts G12 and C8T9 of other strand; Pull-down: 150 mM NaCl, 50 mM Tris-HCl pH 7.5, 5 mM MgCl2, 0.5% Igepal CA-630, 1 mM DTT, 20 ug salmon sperm DNA, 4 C 2 h; crystals: 0.2 M imidazole malate pH 8.5, 20% PEG 4K, 20 C
# Settings: protein: recombinant; tags: GST removed by TEV; 5' overhang 1 nt at both ends, 15 bp
binder,measurement,value
B1,binding result,binds
